# Assay results taken from paper PMC3078936, “Directed Evolution Reveals the Binding Motif Preference of the LC8/DYNLL Hub Protein and Predicts Large Numbers of Novel Binders in the Human Proteome” (PLoS ONE, 2011).
# Ends that are not written are not given here.
# B1: Ac-GSRGTQTE (peptide)
# peptide: Ac-GSRGTQTE
# notes: phage-selected consensus with Gly at position -5; also called Gly-5 version of the in vitro evolved consensus; source: synthetic peptide
# B2: Ac-VSRGTQTE, in vitro evolved consensus peptide (peptide)
# peptide: Ac-VSRGTQTE
# notes: also called phage selected consensus; source: synthetic peptide
# B3: Ac-SRGTQTE (peptide)
# peptide: Ac-SRGTQTE
# notes: phage-selected consensus without position -5; also called Ac-5 version of the in vitro evolved consensus; source: synthetic peptide
# B4: Ac-GDKSTQTD (peptide)
# peptide: Ac-GDKSTQTD
# notes: natural consensus extended by Gly at position -5; also called Gly-5 version of the natural consensus; source: synthetic peptide
# B5: Ac-VDKSTQTD (peptide)
# peptide: Ac-VDKSTQTD
# notes: natural consensus extended by Val at position -5; also called Val-5 version of the natural consensus; source: synthetic peptide
# B6: Ac-DKSTQTD, naturally evolved consensus peptide (peptide)
# peptide: Ac-DKSTQTD
# notes: also called natural consensus; Ac-5 version of the natural consensus; source: synthetic peptide
# B7: dimeric-… (Leu-zipper dimerized … peptide) (peptide)
# chain: not shown
# notes: first two residues (Gly-7, Ser-6) come from the recombinant construct; leucine zipper of yeast GCN4, residues 250-281; PDB 3P8M holds the construct; not shown: GST, N-terminal, cleaved
# B8: EML3 (8-94), recombinant fragment (domain or fragment, human, UniProt Q32P44 8-94, looked up)
# chain: GDGPAREALQSLSQRLRVQEQEMELVKAALAEALRLLRLQVPPSSLQGSGTPAPPGDSLAAPPGLPPTCTPSLVSRGTQTETEVELK
# notes: also called EMAP-3; source: recombinant
# Target: T1, LC8 dynein light chain DYNLL1 (residues 1-89) (human (from the printed UniProt …, UniProt P63167 1-89))
# T1 construct: DYNLL1, residues 1-89, UniProt P63167, cloned into pET-15b; The methods name thrombin removal of the His tag only for DYNLL2; also called DYNNL1; source: E. coli BL21(DE3)Star, purified (Ni IMAC, HiTrapQ anion exchange)
# Test: ITC; 15 µM DYNLL1 in the cell, 30-40 injections of 3-5 µl peptide; PBS with 3 mM 2-mercaptoethanol, pH 7.4; 299 K; A + B to AB model
# Settings: both partners purified
# T1 sequence (P63167 whole entry, the tested form may be a part): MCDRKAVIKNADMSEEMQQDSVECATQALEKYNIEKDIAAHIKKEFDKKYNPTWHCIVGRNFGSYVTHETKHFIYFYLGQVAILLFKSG
row,Binder,stoichiometry N
1,B1,1
2,B2,1
3,B3,1
4,B4,1
5,B5,1
6,B6,1

# Target: the molecule itself
# Test: crystal structure; DYNLL2 (1.2 mM dimer) with 1.3 mM dimerized-VSRGTQTE; hanging drop, 293 K, 20% PEG8000, 0.2 M MgCl2, 0.1 M TRIS pH 7.0
# Settings: not given
row,Binder,binding result
1,B7,binds

# Target: T1, LC8 dynein light chain DYNLL1 (residues …)
# Test: ITC; 15 µM DYNLL1 in the cell, 30-40 injections of 3-5 µl peptide; PBS with 3 mM 2-mercaptoethanol, pH 7.4; 299 K; A + B to AB model
# Settings: both partners purified
# Remark: another data set of the same source
Binder,Kd,dH
B1,1640 nM,-16.7 kcal/mol
B2,80 nM,-18.1 kcal/mol
B3,15200 nM,-11.6 kcal/mol
B7,< 7 nM,-15.5 kcal/mol
B4,560 nM,-16.8 kcal/mol
B5,70 nM,-15.6 kcal/mol
B8,50 nM,-7.74 kcal/mol
B6,5600 nM,-11.7 kcal/mol
